Experimental data: patent US20240307489A1 (WESTLAKE UNIVERSITY, published 2024)

Target: T1, LRP1 (low density lipoprotein receptor-related protein 1), endogenous in HEK293T cells (human, UniProt Q07954 20-4544)
T1 construct: Endogenous protein in HEK293T lysates (TAP-MS prey, co-IP); also called endogenous LRP1
Test: TAP-MS of SFB-tagged Notch pathway proteins in HEK293T cells
Procedure: We picked 12 clones of each bait for the follow-up experiments and confirmed the bait protein expression and localization using Western blotting and immunostaining, respectively. From which, we chose two clones of each bait with the correct subcellular localization and a moderate expression close to that of endogenous one as biological repeat for TAP-MS analysis. HEK293T cells stably expressing C-terminal SFB-fused Notch pathway proteins were selected via culture in medium containing 2 μg/ml puromycin. Protein expression was confirmed via immunostaining and Western blotting as described previously (Wang, W., Li, X., Huang, J., Feng, L., Dolinta, K. G., and Chen, J. (2014). Defining the protein-protein interaction network of the human hippo pathway. Mol Cell Proteomics 13, 119-131.).
For TAP experiments, the membrane-bound and soluble proteins of 2×10⁸ HEK293T cells were extracted using a membrane/soluble protein isolation kit (Beyotime, China) with protease inhibitors at 4° C. The insoluble pellets from the crude lysis step were briefly sonicated and incubated with TurboNuclease for 30 min at 37° C. with occasional vortexing to extract chromatin-bound protein complexes. The lysates were then centrifuged at 14,000 rpm for 30 min at 4° C., and the supernatant was collected as a chromatin fraction. […]

T1 sequence (Q07954 20-4544 limits assumed): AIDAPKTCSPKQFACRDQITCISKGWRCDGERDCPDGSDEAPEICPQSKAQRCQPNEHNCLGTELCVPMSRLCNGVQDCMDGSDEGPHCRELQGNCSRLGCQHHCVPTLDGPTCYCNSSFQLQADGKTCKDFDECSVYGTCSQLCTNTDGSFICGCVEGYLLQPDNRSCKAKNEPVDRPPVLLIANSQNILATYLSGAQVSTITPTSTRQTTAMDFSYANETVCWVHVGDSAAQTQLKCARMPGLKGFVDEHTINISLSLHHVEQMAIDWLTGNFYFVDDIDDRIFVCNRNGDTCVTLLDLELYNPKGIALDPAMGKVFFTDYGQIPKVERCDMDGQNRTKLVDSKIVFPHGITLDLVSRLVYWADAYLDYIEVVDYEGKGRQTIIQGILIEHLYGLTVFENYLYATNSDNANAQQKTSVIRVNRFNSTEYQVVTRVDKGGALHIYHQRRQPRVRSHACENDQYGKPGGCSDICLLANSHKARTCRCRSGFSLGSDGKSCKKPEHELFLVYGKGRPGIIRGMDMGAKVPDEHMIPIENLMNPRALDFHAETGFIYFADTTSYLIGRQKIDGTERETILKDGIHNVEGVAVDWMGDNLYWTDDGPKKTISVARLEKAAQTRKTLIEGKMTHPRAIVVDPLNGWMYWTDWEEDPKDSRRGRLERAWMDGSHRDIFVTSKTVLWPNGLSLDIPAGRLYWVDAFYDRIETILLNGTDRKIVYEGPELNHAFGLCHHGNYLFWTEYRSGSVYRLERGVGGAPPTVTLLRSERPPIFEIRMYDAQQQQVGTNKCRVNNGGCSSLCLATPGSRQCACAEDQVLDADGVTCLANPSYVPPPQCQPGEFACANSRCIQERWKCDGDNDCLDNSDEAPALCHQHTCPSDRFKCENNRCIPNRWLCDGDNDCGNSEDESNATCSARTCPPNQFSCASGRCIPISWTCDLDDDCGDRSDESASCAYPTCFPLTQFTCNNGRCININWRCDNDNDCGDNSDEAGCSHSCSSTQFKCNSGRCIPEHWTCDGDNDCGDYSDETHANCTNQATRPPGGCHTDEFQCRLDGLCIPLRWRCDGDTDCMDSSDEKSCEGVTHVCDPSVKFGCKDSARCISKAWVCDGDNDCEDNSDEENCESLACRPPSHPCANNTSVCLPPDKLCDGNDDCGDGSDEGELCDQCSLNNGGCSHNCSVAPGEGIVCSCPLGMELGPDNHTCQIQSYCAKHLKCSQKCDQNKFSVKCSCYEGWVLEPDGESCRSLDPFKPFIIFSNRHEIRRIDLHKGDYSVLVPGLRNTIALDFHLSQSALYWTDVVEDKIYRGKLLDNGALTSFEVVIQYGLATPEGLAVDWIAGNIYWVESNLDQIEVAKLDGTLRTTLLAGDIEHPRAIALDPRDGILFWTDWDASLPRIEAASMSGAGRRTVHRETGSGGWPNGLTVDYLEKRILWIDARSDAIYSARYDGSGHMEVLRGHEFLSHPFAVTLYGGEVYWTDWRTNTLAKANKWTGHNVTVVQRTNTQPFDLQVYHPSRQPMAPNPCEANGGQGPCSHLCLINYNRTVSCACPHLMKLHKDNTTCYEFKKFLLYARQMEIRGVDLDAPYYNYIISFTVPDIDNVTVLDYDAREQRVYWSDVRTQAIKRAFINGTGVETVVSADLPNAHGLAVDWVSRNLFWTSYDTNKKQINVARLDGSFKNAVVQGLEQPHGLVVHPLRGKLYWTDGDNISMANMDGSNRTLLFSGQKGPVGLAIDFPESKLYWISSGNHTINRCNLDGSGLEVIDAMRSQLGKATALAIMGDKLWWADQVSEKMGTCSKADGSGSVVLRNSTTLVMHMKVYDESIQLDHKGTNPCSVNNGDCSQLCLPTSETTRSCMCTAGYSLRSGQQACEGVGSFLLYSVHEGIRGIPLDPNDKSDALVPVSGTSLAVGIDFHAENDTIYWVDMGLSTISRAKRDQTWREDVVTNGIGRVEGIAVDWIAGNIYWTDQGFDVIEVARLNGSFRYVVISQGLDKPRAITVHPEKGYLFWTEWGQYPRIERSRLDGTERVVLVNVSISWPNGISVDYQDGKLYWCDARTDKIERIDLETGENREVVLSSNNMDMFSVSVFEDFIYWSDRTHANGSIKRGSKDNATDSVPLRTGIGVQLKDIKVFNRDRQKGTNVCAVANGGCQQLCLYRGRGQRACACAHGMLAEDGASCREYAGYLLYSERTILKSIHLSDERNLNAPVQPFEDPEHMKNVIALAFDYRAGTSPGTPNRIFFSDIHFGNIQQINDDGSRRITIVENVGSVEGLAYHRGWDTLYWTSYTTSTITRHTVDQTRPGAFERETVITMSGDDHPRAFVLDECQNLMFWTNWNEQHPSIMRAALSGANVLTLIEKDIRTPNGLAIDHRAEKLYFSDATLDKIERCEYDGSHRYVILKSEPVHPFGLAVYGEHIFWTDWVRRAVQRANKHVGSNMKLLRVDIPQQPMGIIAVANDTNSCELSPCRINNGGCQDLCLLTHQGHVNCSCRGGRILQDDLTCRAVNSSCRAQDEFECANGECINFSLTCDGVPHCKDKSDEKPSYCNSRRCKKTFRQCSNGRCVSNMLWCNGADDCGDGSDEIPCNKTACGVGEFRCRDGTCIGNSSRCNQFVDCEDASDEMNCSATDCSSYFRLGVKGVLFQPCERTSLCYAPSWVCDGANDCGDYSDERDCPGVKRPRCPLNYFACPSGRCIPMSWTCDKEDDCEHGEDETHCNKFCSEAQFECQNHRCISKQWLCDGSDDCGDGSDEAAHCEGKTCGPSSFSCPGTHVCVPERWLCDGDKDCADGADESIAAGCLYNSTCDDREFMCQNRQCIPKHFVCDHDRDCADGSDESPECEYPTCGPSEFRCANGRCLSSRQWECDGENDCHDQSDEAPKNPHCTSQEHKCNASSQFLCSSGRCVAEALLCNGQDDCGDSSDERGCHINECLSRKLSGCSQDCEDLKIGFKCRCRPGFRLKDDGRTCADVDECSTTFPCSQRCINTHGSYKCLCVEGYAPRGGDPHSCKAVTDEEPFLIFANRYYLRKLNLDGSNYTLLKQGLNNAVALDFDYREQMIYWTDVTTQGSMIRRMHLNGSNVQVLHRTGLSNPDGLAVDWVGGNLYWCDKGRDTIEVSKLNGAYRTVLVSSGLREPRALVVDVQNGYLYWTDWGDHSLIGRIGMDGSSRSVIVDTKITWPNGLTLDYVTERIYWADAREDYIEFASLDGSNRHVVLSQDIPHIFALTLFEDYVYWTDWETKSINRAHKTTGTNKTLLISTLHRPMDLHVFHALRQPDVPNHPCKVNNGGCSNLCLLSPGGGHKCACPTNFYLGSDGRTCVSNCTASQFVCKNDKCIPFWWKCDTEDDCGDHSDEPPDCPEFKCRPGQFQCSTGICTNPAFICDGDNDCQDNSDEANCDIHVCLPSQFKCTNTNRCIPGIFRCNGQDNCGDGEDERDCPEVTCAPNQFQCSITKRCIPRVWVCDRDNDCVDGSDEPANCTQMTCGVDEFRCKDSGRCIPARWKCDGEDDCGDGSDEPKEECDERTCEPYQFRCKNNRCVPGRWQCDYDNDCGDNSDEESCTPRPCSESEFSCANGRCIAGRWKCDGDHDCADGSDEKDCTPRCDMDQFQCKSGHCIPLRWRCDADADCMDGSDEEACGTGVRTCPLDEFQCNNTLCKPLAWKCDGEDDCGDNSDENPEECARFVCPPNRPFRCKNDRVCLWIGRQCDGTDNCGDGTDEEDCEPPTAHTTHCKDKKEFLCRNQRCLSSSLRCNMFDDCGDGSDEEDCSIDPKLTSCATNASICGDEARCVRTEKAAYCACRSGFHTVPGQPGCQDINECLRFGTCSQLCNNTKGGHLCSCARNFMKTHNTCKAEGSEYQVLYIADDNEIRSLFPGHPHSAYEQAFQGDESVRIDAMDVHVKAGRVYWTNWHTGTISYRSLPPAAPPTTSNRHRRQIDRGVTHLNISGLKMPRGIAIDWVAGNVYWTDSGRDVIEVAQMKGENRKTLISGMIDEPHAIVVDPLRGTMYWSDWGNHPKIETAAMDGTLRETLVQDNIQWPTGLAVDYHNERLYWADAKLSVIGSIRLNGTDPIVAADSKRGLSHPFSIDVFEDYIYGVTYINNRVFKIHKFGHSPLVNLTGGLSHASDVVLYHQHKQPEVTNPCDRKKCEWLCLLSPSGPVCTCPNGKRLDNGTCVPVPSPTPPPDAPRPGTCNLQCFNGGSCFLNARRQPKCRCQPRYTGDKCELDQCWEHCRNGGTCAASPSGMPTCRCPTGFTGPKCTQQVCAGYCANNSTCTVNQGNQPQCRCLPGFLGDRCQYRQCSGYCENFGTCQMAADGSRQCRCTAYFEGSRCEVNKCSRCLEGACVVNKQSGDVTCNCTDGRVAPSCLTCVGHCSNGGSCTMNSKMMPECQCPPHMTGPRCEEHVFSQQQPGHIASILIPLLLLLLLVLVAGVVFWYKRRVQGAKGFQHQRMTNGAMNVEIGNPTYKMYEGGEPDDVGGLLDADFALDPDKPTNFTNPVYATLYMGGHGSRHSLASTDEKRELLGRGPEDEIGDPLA

binding result: binds
B1: cSFB-tagged wild-type DLL3 (ligand, human, UniProt Q9NYJ7 27-618, looked up)
chain: AGVFELQIHSFGPGPGPGAPRSPCSARLPCRLFFRVCLKPGLSEEAAESPCALGAALSARGPVYTEQPGAPAPDLPLPDGLLQVPFRDAWPGTFSFIIETWREELGDQIGGPAWSLLARVAGRRRLAAGGPWARDIQRAGAWELRFSYRARCEPPAVGTACTRLCRPRSAPSRCGPGLRPCAPLEDECEAPLVCRAGCSPEHGFCEQPGECRCLEGWTGPLCTVPVSTSSCLSPRGPSSATTGCLVPGPGPCDGNPCANGGSCSETPRSFECTCPRGFYGLRCEVSGVTCADGPCFNGGLCVGGADPDSAYICHCPPGFQGSNCEKRVDRCSLQPCRNGGLCLDLGHALRCRCRAGFAGPRCEHDLDDCAGRACANGGTCVEGGGAHRCSCALGFGGRDCRERADPCAARPCAHGGRCYAHFSGLVCACAPGYMGARCEFPVHPDGASALPAAPPGLRPGDPQRYLLPPALGLLVAAGVAGAALLLVHVRRRGHSQDAGSRLLAGTPEPSVHALPDALNNLRTQEGSGDGPSSSVDWNRPEDVDPQGIYVISAPSIYAREVATPLFPPLHTGRAGQRQHLLFPYPSSILSVK
notes: Expressed in HEK293T cells, pulled down on S beads; also called cSFB-DLL3; C-terminal SFB-fused DLL3; not shown: C-terminal SFB triple tag (S protein tag-2xFLAG tag-SBP tag)
